The supplement of paper PMC10567573

B1: TMEM40 (parent)
chain: YGETDFHKQDGKAGLFSQEQYERN
B2: SPSB1 (parent)
chain: DMRDPTYRPLKQELQGLDYCKPTR

Variants of: B1
Test: protein stability index of a GFP-peptide fusion (GPS, HEK-293T) (PSI 1-6); higher = more stable
Details: c terminus: a fixed tail appended
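Further: lentivirally expressed fusions sorted by FACS into six bins by GFP to DsRed ratio, PSI derived from sequencing read proportions per bin multiplied by bin number.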

Variant	protein stability index
YGETDFHKQDGKAGLFSQEQYEQN [R23Q]	4.3
YGETDFHKQDGKAGLFSQEQYEVN [R23V]	3.67
YGETDFHKQDGKAGLFSQEQYEFN [R23F]	4.04
YGETDFHKQDGKAGLFSQEQYENN [R23N]	4.16
YGETDFHKQDGKAGLFSQEQYEIN [R23I]	4.11
YGETDFHKQDGKAGLFSQEQYEDN [R23D]	4.9
YGETDFHKQDGKAGLFSQEQYECN [R23C]	4.32
YGETDFHKQDGKAGLFSQEQYETN [R23T]	4.62
YGETDFHKQDGKAGLFSQEQYEWN [R23W]	4.13
YGETDFHKQDGKAGLFSQEQYEAN [R23A]	4.69
YGETDFHKQDGKAGLFSQEQYEMN [R23M]	4.17
YGETDFHKQDGKAGLFSQEQYEPN [R23P]	4.21
YGETDFHKQDGKAGLFSQEQYEYN [R23Y]	4.02
YGETDFHKQDGKAGLFSQEQYEHN [R23H]	4.3
YGETDFHKQDGKAGLFSQEQYEKN [R23K]	4.37
YGETDFHKQDGKAGLFSQEQYEGN [R23G]	4.58
YGETDFHKQDGKAGLFSQEQYELN [R23L]	4
YGETDFHKQDGKAGLFSQEQYESN [R23S]	4.37
YGETDFHKQDGKAGLFSQEQYEEN [R23E]	4.7
YGETDFHKQDGKAGLFSQEQYLRN [E22L]	3.61
YGETDFHKQDGKAGLFSQEQYYRN [E22Y]	3.23
YGETDFHKQDGKAGLFSQEQYWRN [E22W]	2.74
YGETDFHKQDGKAGLFSQEQYKRN [E22K]	3.67
YGETDFHKQDGKAGLFSQEQYPRN [E22P]	3.48

Variant	protein stability index
YGETDFHKQDGKAGLFSQEQYVRN [E22V]	3.76
YGETDFHKQDGKAGLFSQEQYNRN [E22N]	3.85
YGETDFHKQDGKAGLFSQEQYTRN [E22T]	4.01
YGETDFHKQDGKAGLFSQEQYQRN [E22Q]	3.8
YGETDFHKQDGKAGLFSQEQYRRN [E22R]	3.71
YGETDFHKQDGKAGLFSQEQYMRN [E22M]	3.64
YGETDFHKQDGKAGLFSQEQYERT [N24T]	3.89
YGETDFHKQDGKAGLFSQEQYERI [N24I]	3.54
YGETDFHKQDGKAGLFSQEQYERK [N24K]	4.6
YGETDFHKQDGKAGLFSQEQYERF [N24F]	3.8
YGETDFHKQDGKAGLFSQEQYERQ [N24Q]	4.09
YGETDFHKQDGKAGLFSQEQYERH [N24H]	3.88
YGETDFHKQDGKAGLFSQEQYERA [N24A]	3.63
YGETDFHKQDGKAGLFSQEQYERC [N24C]	3.98
YGETDFHKQDGKAGLFSQEQYERS [N24S]	4.22
YGETDFHKQDGKAGLFSQEQYERP [N24P]	3.25
YGETDFHKQDGKAGLFSQEQYERM [N24M]	3.89
YGETDFHKQDGKAGLFSQEQYERY [N24Y]	3.85
YGETDFHKQDGKAGLFSQEQYERW [N24W]	3.99
YGETDFHKQDGKAGLFSQEQYERL [N24L]	4.16
YGETDFHKQDGKAGLFSQEQYERG [N24G]	4.12
YGETDFHKQDGKAGLFSQEQYERD [N24D]	4.4
YGETDFHKQDGKAGLFSQEQYERE [N24E]	4.54
YGETDFHKQDGKAGLFSQEQYERV [N24V]	3.67

Variants of: B2
Test: as above
Details: c terminus: a fixed tail appended

Variant	protein stability index
DMRDPTYRPDKQELQGLDYCKPTR [L10D]	3.76
DMRDPTYRPIKQELQGLDYCKPTR [L10I]	3.67
DMRDPTYRPQKQELQGLDYCKPTR [L10Q]	3.68
DMRDPTYRPTKQELQGLDYCKPTR [L10T]	3.74
DMRDPTYRPEKQELQGLDYCKPTR [L10E]	4.03
DMRDPTYRPVKQELQGLDYCKPTR [L10V]	3.14
DMRDPTYRPPKQELQGLDYCKPTR [L10P]	3.37
DMRDPTYRPLKQDLQGLDYCKPTR [E13D]	3.68
DMRDPTYRPLKQLLQGLDYCKPTR [E13L]	2.42
DMRDPTYRPLKQYLQGLDYCKPTR [E13Y]	2.41
DMGDPTYRPLKQELQGLDYCKPTR [R3G]	3.21
DMQDPTYRPLKQELQGLDYCKPTR [R3Q]	3.45
DMDDPTYRPLKQELQGLDYCKPTR [R3D]	2.59
DMMDPTYRPLKQELQGLDYCKPTR [R3M]	2.99
DMCDPTYRPLKQELQGLDYCKPTR [R3C]	2.9
DMTDPTYRPLKQELQGLDYCKPTR [R3T]	3.42
DMWDPTYRPLKQELQGLDYCKPTR [R3W]	3.14
DMNDPTYRPLKQELQGLDYCKPTR [R3N]	3.19
DMRDPTYRPLKQELQGLDQCKPTR [Y19Q]	4.48
DMRDPTYRPLKQELQGLDTCKPTR [Y19T]	4.32
DMRDPTYRPLKQELQGLDWCKPTR [Y19W]	3.04
DMRDPTYRPLKQELQGLDMCKPTR [Y19M]	4
DMRDPTYRPLKQELQGLDCCKPTR [Y19C]	3.91

Variant	protein stability index
DMRDPTYRPLKQELQGLDSCKPTR [Y19S]	4.35
DMRDPTYRPLKQELQGLDGCKPTR [Y19G]	4.73
DMRDPTYRPLKQELQGLDYCKPTA [R24A]	2.32
DMRDPTYRPLKQELQGLDYCKPTF [R24F]	2.41
DMRDPTYRPLKQELQGLDYCKPTL [R24L]	1.6
DMRDPTYRPLKQELQGLDYCKPTV [R24V]	1.92
IMRDPTYRPLKQELQGLDYCKPTR [D1I]	2.57
YMRDPTYRPLKQELQGLDYCKPTR [D1Y]	2.99
EMRDPTYRPLKQELQGLDYCKPTR [D1E]	3.53
GMRDPTYRPLKQELQGLDYCKPTR [D1G]	2.65
TMRDPTYRPLKQELQGLDYCKPTR [D1T]	3.62
DMRDPTYRPLSQELQGLDYCKPTR [K11S]	3.76
DMRDPTYRPLCQELQGLDYCKPTR [K11C]	2.48
DMRDPTYRPLRQELQGLDYCKPTR [K11R]	3.54
DMRDPTYRPLLQELQGLDYCKPTR [K11L]	3.24
DMRDPTYRPLDQELQGLDYCKPTR [K11D]	3.85
DMRDPTYRPLAQELQGLDYCKPTR [K11A]	3.68
DMRDPTYRPLWQELQGLDYCKPTR [K11W]	2.5
DMRDPTYRPLKDELQGLDYCKPTR [Q12D]	3.45
DMRDPTYRPLKCELQGLDYCKPTR [Q12C]	2.74
DMRDPTYRPLKGELQGLDYCKPTR [Q12G]	2.48
DMRDPTYRPLKTELQGLDYCKPTR [Q12T]	3.43
DMRDPTYRPLKHELQGLDYCKPTR [Q12H]	3.46
